This note sets out measurements from the DeepSol protein solubility set.

This data set can be described thus: soluble on expression in E. coli; label from the status in PepcDB or PDB records.
In the case of “AIADTGELHDLTVKGAVVTQLERCEVACQRLFQNLALLGLELQNSESITEGVCDSKAASDLGSSVELLENEERALRLCVDRFVLELRQVENLAKTLDGIREEEERILSLEQRSIEQAERCFYLWNDAREMLRGTRLTSIKEVLESAARYPRIPSWTPLPTSN”, the “soluble on expression in E. coli” value is reported as “soluble”.
The result for “MDPVFDFEDALDQTEMAQLAVDELKKIPEVNTLFAERWLPAPFNLDDLAKLPEGTLGHVYAIEMKARGFDPYFYKKVPVVDDISYLKMLWRSTHDIYHVVAGFDTDGIGEIGLQAFVLAQTPIPISVMLVSFGMVMTSLYQPAKFQDLMAEIARGYSLGSHTPRKLIAQKWDQFWDVPVIEIRECLGMNTVKQRERALEHHHHHH” reads “soluble”.
Consider “MNPLEAVEHQGGLQLSTPPYEIAVDQKCYWRNQPIGLTLQGHNESIWFKGFVIQPFKWNNDQLGERFGQLVRLDDNGSWQQQCFRYQVSATHSHDEKKKHIKMWWKVDDEVDTVQFVATVVKHQTQFWVKSVRSRPLPPCRLNRDGFPNYQAPVPQIPPQVKQFKMETFKVFDSIVRRRPFNH”, for which the “soluble on expression in E. coli” value is listed as “not soluble”.
For “NKDGPVCLQVKPCTPEFYQTHFQLAYRLQSRPRGLALVLSNVHFTGEKELEFRSGGDVDHSTLVTLFKLLGYDVHVLCDQTAQEMQEKLQNFAQLPAHRVTDSCIVALLSHGVEGAIYGVDGKLLQLQEVFQLFDNANCPSLQNKPKMFFIQACRGDETDRGVDQQD”, the “soluble on expression in E. coli” value is “soluble”.
The value for “MGSSHHHHHHSSGLVPRGSHMNIGDTLNHSLLNHPLMLSGSTCKTLSDYTNQWLVLYFYPKDNTPGSSTEGLEFNLLLPQFEQINATVLGVSRDSVKSHDSFCAKQGFTFPLVSDSDAILCKAFDVIKEKTMYGRQVIGIERSTFLIGPTHRIVEAWRQVKVPGHAEEVLNKLKAHAEQ” was “soluble”.
Take “MGHHHHHHGGHMSLIGFLTDWGLKSHYVGVAKAVIKRINPSAEIIDITHEVEPFNVRKASHVLYRASLDFPPSTVFLVVVDYGVGTSRKAIVMKTKNDQYFVAPDNGVLTVVAEEYGVAEIREIENRELFYKKNPSFTFHGRDIFAPVAAHLDMGLPLERVGDRLLSYEVLKMRKPVVENEKVIGEVAIVDTFGNVSTNIPFDLFLKLSVDFDDVVRVRVGRKEFKAAVAKAFGDVDTGELLVHPDSAGFLEIAVNLGDASQVLSVKEGDEIEICREGGS”: the “soluble on expression in E. coli” value is given as “soluble”.
As for “MGSDKIHHHHHHNEEIEKAVQPVEISFNTAVSKTTRATTLVNSAFTKFTAYAYSTTGAFADATKVNALISGAEFTKGENSAWGSGNSVFYWPATDQVSFFAFSPNTTKQLSWGAAVANTAPTLTYTVEGTVEKQEDLVVAEAMNKQKATSGSTEAVALNFKHALTKVGFKIKGEGSGVTYTLNKIVINAKNKGVYTYGATSTTNETTLGTWTIPSDATATAYTVEPTEALSITGADNGGTANETLVEADYTAMLIPQNLTGVTFEIYYKAEAGGAILCDKTTTPEEITFTDGTWTAGQSVAYVLTLKGVEKMSITGSVADSWDFTETPK”, the “soluble on expression in E. coli” value is recorded as “not soluble”.
For the sequence “MGSDKIHHHHHHMLAIIKQFFAKSHGTTVSDSRFLALNHWLSNTFGEPLSPVLISGDASFRRYFRAVHQGRAMVIMDTPVALIPTEPFVAVRNAYAASGLPVPGIIAKDDEQGFMALEDFGDVQLLSLLNSQSVRHWYPRALALLPGIAAVTQTVLGPLPDYDDAFVRRELGIFTEWLLGTHLKLELTSDEEAIIADAFDMLTQNALEQPKVGMHRDFHSRNLMVVDGELKLLDFQDAVLGPVTYDAVSLLRDCYIRWSEDLVDDMLVEFFVLAHEHALVPPHTDMVQFRRWFELMGLQRHIKAAGIFARLNHRDGKAGYLKDIPLTMHYIRDVAVRYKELGDFAQFIMRRVMPALEAGA”, the “soluble on expression in E. coli” value is reported as “not soluble”.
On to “MALLPFFDLTNFESDASEELGWLKYVGRVQTRVFPQHFKDNLEKVRKISETIDVIVDTTAELGPEACVNLLNAGALAILVNEEMLNELADISPNRLVLKTDTTDIGKIEKLSQVAGSIQWIGSAENYPPDFFERASKIIHKAVMPEGGGRTLYLEFPEQPSMEVLKSFSVHSVVPVLSSSFLTVKPAEEPKKLSLADLILISANTDREDGLFSTLVVNELGIALGLVYSSKESVAESLKTGTGVYQSRKRGLWYKGASSGAVQHLIHIDVDCDEDCLRFVVYQTGKGFCHLDTLHCFGQASGLCQLEKTLIDRKNNAPEGSYTARLFSDPKLLRAKIMEEAEELCDATTKENVIWEMADLMYFAITRCVGSGVSLNDISRHLDLKHRKVTRRKGDAKVAWQEKLKDKGGVANTSYTA”, for which the “soluble on expression in E. coli” value is reported as “soluble”.
On to “MNNPKAISKQTLLRLPSYLSYLKSLPKQDGEYVSATMIASALGLNDVQVRKDLACVSKKGRPKLGYVAEELIRDIESFLGYDSLNDAIIVGAGRLGGALLSYEGFKEYGLNIVAAFDIDESKIGTEICGRKIFPLDKMKELCRRMKIRIGIITVPADSAQKVCDMLVDSGIYAIWNFAPVHLKVPDNILVQQENMAASLAVLSAHLAEAIKNNGIGKGDEENDENSE”, for which the “soluble on expression in E. coli” value is “not soluble”.
As to “AESLSGLSLKLVKKEPRQLELTWAGSRPRNPGGNLSYELHVLNQDEEWHQMVLEPRVLLTKLQPDTTYIVRVRTLTPLGPGPFSPDHEFRTSPP”, the “soluble on expression in E. coli” value was “soluble”.
For the sequence “MSTPSLYEMLTFSFSGELPLEQISERDQLILSVMDNMQRIINCRAGTLAHLPDYGLPDLSLIHQGMAAGIHGLMRQIEETLLRYEPRLSQIQVELLPQPRPGHLNYLIHAQLPDTGWIRFDGVFSPEGRIVLRHLKQQERAY”, the “soluble on expression in E. coli” value was “not soluble”.
For “MFVVPRRLSSFLSLVHEYRHLARRSYVMETPSIDIQNIRAKYLNSHDPYLLESKLPTTSPFELFDIWFRNVASQSDLTFEEINAVSLSTVGKDLRPSSRMVLLKAYTPTGFSFYTNYTSRKGNQLEENPNAAMLFYWPKVNRQIRVEGVVEKLPDEMAVAYWNSRPVASRIGSKSSDQSKVVPDREFLESKKVALTELSVREGAQAITKPESWGGYHLIPRYFEFWQGQSDRLHDRIVFERDVDVWLLKRLSP”, the “soluble on expression in E. coli” value is “not soluble”.
With “METVTLSEARVYVGTYNKYNSGSLFGKWLDLSDYSDKDEFMEACRELHKDDQDPEFMFQDYENIPEALISESWLSDKFFELRDAIEKLSETQQEAFFVWCDHHNNDISEEDADDLISSFEDEYQGEYKDEEDYAYEIVEECYDLPEFAKTYFDYSAFARDLFMTDYWMDNGFVFRCA”, the “soluble on expression in E. coli” value is “not soluble”.
Consider “MTIEKIDTLVIGAGQAGVAMSEHLSKQDVPHLVLERNRIAEQWRTGRWDSLVANGPAWHDRFPGLEFEEHDPDSFVPKEKIADYLVDYAKKFDAPIRTGIEVKNVERNTNGQGFIIETSQGTIEAKRVVSATGPFQVPVIPPIAKNEKITQIHSADYRNPEQLEDGAVLVVGAGSSGVQIADELQRSGRKVFLSTGPHDRPPRSYRNRDFCWWLGVLGEWDRESLEPGTEHVTIAVTGAHGGNGTVDFRALAHQGITLLGMTKEFNNGKVTFQKDLNTNVERGNKNYMDFLDSADAYIERNGLDLPEEPTARDVLSDPECMTNPILELDLAKEGITSIVWATGFALDYSWLNVDAFDENGKPAHQRGVSTEPGVYFVGQAWLSRRGSAFIWGVWHDAKHIAGHISTQRTYSAYQDASQRLEHHHHHH”, for which the “soluble on expression in E. coli” value is reported as “soluble”.
The result for “MAHHHHHHMSLEPTLRDLLHSKLQWIFVGGKGGVGKTTTSCALATLFASTPVHDAVTNTTRPRRVLLISTDPAHNLSDAFSQKFGKTPVPVNGMEETLFAMEVDPTTFTHGGFGAMLGFPGHIATDADAPSPFAALGNILKEAAGTLPGIDELSVFAEILRGVQQLSYDVVIFDTAPTGHTLRLLALPHTLNSTMEKLLSVEGLNTLIQAASAVLSSTTNLGDMSSLMPAFKQWRENVQEVQRQFTDAEKTAFICVCIPEFLSVYETERLVQELMKYDISCDSIVVNQLVLKPSSEPDCRMCNARQKIQSKYLAQIDSLYEDFHVVKMPLLSDEVRGVPALQRFAQFLLEPYDADRHGYIDVCGAAS” reads “soluble”; that for “MLTRGFTSIGKIASRGLSSTFYQDAFQLSDQLTEDERSLMLSAREYCQERLLPRVTEAYRTEKFDPSLIPEMGSMGLLGAPYQGYGCAGTSTVGYGLIAREVERVDSGYRSTMSVQTSLVIGPIYNYGSEDQKQKYIPDLASGKKIGCFGLTEPNHGSNPGGMETKATWDETTKTYKLNGSKTWISNSPVSDVMVVWARSARHNNKIKGFILERGMKGLTTPKIEGKLSLRASITGQIAMDDVPVPEENLLPNAEGLQGPFGCLNNARLGIAWGALGAAEECFHLARQYTLDRQQFGRPLAQNQLMQLKMADMLTEISLGLQGCLRVSRLKDEGKVQSEQISIIKRNSCGKALEVARKARDMLGGNGIVDEYHIMRHMVNLETVNTYEGTHDVHALILGRAITGLNGFC”, “not soluble”; that for “MVPAAQQTATAPDAALTFPEGFLWGSATASYQIEGAAAEDGRTPSIWDTYARTPGRVRNGDTGDVATDHYHRWREDVALMAELGLGAYRFSLAWPRIQPTGRGPALQKGLDFYRRLADELLAKGIQPVATLYHWDLPQELENAGGWPERATAERFAEYAAIAADALGDRVKTWTTLNEPWCSAFLGYGSGVHAPGRTDPVAALRAAHHLNLGHGLAVQALRDRLPADAQCSVTLNIHHVRPLTDSDADADAVRRIDALANRVFTGPMLQGAYPEDLVKDTAGLTDWSFVRDGDLRLAHQKLDFLGVNYYSPTLVSEADGSGTHNSDGHGRSAHSPWPGADRVAFHQPPGETTAMGWAVDPSGLYELLRRLSSDFPALPLVITENGAAFHDYADPEGNVNDPERIAYVRDHLAAVHRAIKDGSDVRGYFLWSLLDNFEWAHGYSKRFGAVYVDYPTGTRIPKASARWYAEVARTGVLPTA”, “soluble”.
For “MGSDKIHHHHHHMAKIFDIKYGNDEKQKLDLYLQDSVAPLVFYTHGGGWWQGDKRKDTKIFDSLFSAGFSVASVNYRLADKNNPYPAQLDDCHSALTFLQQSDYKFRKDKIALLGASSGANISVSLSIETGYPTVSWSGQFDFKGFLKTHTAITGRKAVDNPDPDKGSRQQSYYKWLLEKLFNGDLSRVGEATLQHKITSKTGPVLLINSAAELAPVMEVYKMQEAYLENGIEVDTIIFPGDRHALGYADDALKPTIDFLETHLQ”, the “soluble on expression in E. coli” value was “not soluble”.
As to “MSLEKYGNVNDFLDDDLVKNGNPDVYIVVGENSATPDVTSANKISAKIGTMTYTEKVVEDTSTTGYQIIGESESINLLDGTDKLDSAGTKKSWILVIGADDSYSDYFDDDEGNSFSYSEFSEADKTRSLGELGYLLKLYDIDPKNHFESDDDASELVFVRITDSDKNANSQTYNIEKDMVYVSIVYPNQISAFKLAKELEEGYEIPFLGDKYRIVKIDEDDDIIYLGTASYEGTIAHNEYISSGEYQVVLGEILENEDEYRVEISVLRNGNMIEEHTETEGHHHHHH”, the “soluble on expression in E. coli” value is on record as “soluble”.
For the sequence “MYNETPIKRRPSTRIYVGNVPIGDGAPIAVQSMTNTKTTDVEATVAQIRALEKVGADIVRVSVPTMDAAEAFKLIKQSVSVPLVADIHFDYRIALKVAEYGVDCLRINPGNIGNEERIRSVVECARDKNIPIRIGVNGGSLEKDLMDKYKEPTPEALLESAMRHVDILDRLNFDQFKVSVKASDVFLAVESYRLLAKQIRQPLHLGITEAGGARAGAVKSAVGLGMLLAEGIGDTLRISLAADPVEEIKVGFDILKSLRIRSRGINFIACPSCSRQEFDVISTVNELERRLEDVTTAMDVSIIGCVVNGPGEALVSHIGLTGGHRKSGYYDEGERQKERFDNDNLVDSLEAKIRAKASQMANRIQVKDTTEAAALEHHHHHH”, the “soluble on expression in E. coli” value was “not soluble”.
